The DeepSol protein solubility set

test: soluble on expression in E. coli; label from the status in PepcDB or PDB records

Sequence	soluble on expression in E. coli
MGSDKIHHHHHHMATNSSTEQSLTKKVWNLATTLAGQGIGFTDYITQLTYLLFLKMDAENVEMFGEESAIPTGYQWADLIAFDGLDLVKQYEETLKLLSELDNLIGTIYTKAQNKIDKPVYLKKVITMIDEEQWLIMDGDVKGAIYESILEKNGQDKKSGAGQYFTPRPLIQAMVDCINPQMGETVCDPACGTGGFLLTAYDYMKGQSASKEKRDFLRDKALHGVDNTPLVVTLASMNLYLHGIGTDRSPIVCEDSLEKEPSTLVDVILANPPFGTRPAGSVDINRPDFYVETKNNQLNFLQHMMLMLKTGGRAAVVLPDNVLFEAGAGETIRKRLLQDFNLHTILRLPTGIFYAQGVKANVLFFSKGQPTKEIWFYDYRTDIKHTLATNKLERHHLDDFVSCYNNRVEIYDAENNPQGRWRKYPVDEIIARDKTSLDITWIKPGGEVDDRSLAELMADIKDKSQTISRAVTELEKLLANIEEN	not soluble
MGSDKIHHHHHHMAYPPTGGDRKTNLTTILRKSSKNLMSKKSDSQFQNLFTSAKSSNWDERLGQIAYRFNREYQRETFELPTEVQAMPIFREWIGGSFSGRIASPFWEIAQPQKNQHCLDIGCGISFLIYPWRDWQAFFHGQEISNVARDTLNSRGPQLNSKLFKGVELGAAHQLNYSPEQFDLAIATGFSCYFPLEYWNAVLAEVKRVLKPGGHFVFDILNPEQPLAEDWAVLETYLGAEVFLEPVAGWEKAIKAAGAKIVTQKSGELFQMYKVRF	not soluble
MGSDKIHHHHHHMDDDSNQKPLFHMALGVLTSLTPPQHHIELVDEHFHDKINYDGDYDMVGITSRTIEATRAYEIADEFRKRGKTVVLGGLHISFNPEEAAAHADCIVVGEADNLWTTLLDDVANNRLKERYDSKDFPPVKAITPLDYARIAKASKRTKVDGTKSIPIYVTRGCPFNCSFCVTPNFTGKQYRVQDPKLLKHQIEEAKKYFFKANGKNSKPWFMLTDENLGINKKKLWESLDLLKECDITFSVFLSINFLEDPTTVKKLVDAGCNFVLAGLESIKQSTLEAYNKGHVNSAEKYSKIIEDCRKAGLNIQGNFLFNPAIDTFEDIDELVQFVKKNHIFMPIFQIITPYPGTQMYHEYRESGLITIEDWEKYNALHLVIKSDRYEPLLFQYKVLKSYVEVYTWKEILLRTLYNPRKLINLVTSIAFKKHLAAQLKAFERNHKMNPAMLSGVKPVMNG	not soluble
MGSDKIHHHHHHMDEIARFLRSYPPFDRLPEQVVHQIAGELQIEFVRAGQTILTKGGEPSSFLYIVCKGSVDLLRSEDQVVDTLGPGEAFGHPSLIRGQPPLVTVRAHTDTLLYLLPGAIFHRLRAEQPQFAAFFAASVIERLGYALQSRQSESNPALFQTRLRDLVARPPVSISPEATVGDAARLMRDERISSLIVEHTPIGIITDRDLRNRVLAEGLPDTTPVRQVMSAPATTIAADALAFEGLLLMLERGIHHLPLVEGDRVVGVVTHTDILRRQSNSPLFLPRLLQRATSLADLRRYTDQVADAVFTLTAAGARVSDIGRVVAVAHDALLQRLIHDAEAQLGPPPVPYAWLVLGSEGRYEQTLRTDQDNALVYDDSASADDVRYFEQLATLVVDWLVECGFPRCPGNIMATNPEWRQSLATWQRYFHRWIEIPDEESLLRIAIFFDYRQVYGQLPAEPVLRTITQHAAEHRIFMARLARAALRQPAPLTFFRQVALERRGDPRDL	not soluble
MGSDKIHHHHHHMDEIEKSLQNWGQQLENVHLPRWHELPDIELYMDQVITLIEKYLSPLITLEKHTLLTSSMVNNYVKHGLIPAPVKKRYNQKHLAFLIAITLLKQVLTLPEIKQGILFQGATVGIREAYNLFCQEQERAIYVIAAQAQEKEVQAKSQEPMGIEYLAVKAATMSFATKMFSEKVIELEQEYLKEMDEMTHE	not soluble
MGSDKIHHHHHHMDGKVMAGTRIEKVMANIRQRITSRSLVPGARLPSVRALAKTMQLSTSTIVEAYDRLVADGTISSRPGSGFFVAGPLAPLSLADIEPRLDRAVDPLWVSRQALDDGSALAKPGCGWLPASWMPQEALRRAMRGLARADDALLTDYGSPMGLLPLRQLLSRRLAEHGVQAGASQIMLTDSGTQAIDLLCRFLLQPGDTVVVDDPCYFNFHALLRAHRVKIVGVPYTPAGPDLPLFEQALKEHQPRLYITNSAIHNPTGARLSAVSAHRLLMLAEQPGLTIIEDDIFADFETQAAPRLAAFDGLNRVVQIGSFSKTLSASVRCGFIAAPRAWVEALTDLKIATAFGGTHFSAALVLSLLTDGSYRKHVEALRQRLAAAVPEAATRLRSIGCMPWIEPQAGMFLWCRLPEGTDAADVAQRALARQVVLAPGNVFSSSQNASGFMRFNVSQMVGPQVMTVLADALR	not soluble
MGSDKIHHHHHHMDHLPPLRLLVTFEAISRHGSMRDAAQRLNVTQPAVSQALKALEDHVGVALFDRSVRPARLTDAGEMLSRAVREGLGRIAATLEDIRALHAIGERQVTVSCTLGMATYWLMPKLPMFYADYPELTVNVQAPATDLPVLSPGIDVALRYGRGGWREGRTEKLFAEVICPVGAPALVERLLAEGATLAEAPLIHVRNPHNDHWAGWEDYLQARGIQRPRGGGQIFNNYVQAAQAIYDGRGLMLGWRSITGQAERDGALRAWPDGALDLGTSYFVTMPTTPSQDTLLFVDWVRKAAATV	not soluble
MGSDKIHHHHHHMDIKLKDFEGPLDLLLHLVSKYQVDIYEVPITEVIEQYLAYIATLQAMRLEVAGEYMLMASQLMVIKSRRLLPKVVEQIDPEDDPEMDLLDQLEEYRKFKLLSEKLGEQHDERANYFSKPKLDLIYDDVQLAKDKTIIDIFLAFSKVMAEKQASLRQSHATIARDEYKIEDMMDFVRSRFETGPRLELRQLFQESQDVNEMITIFLATLELVKVHEIVLEQTETFGDIYLVRSEDESLS	not soluble
MGSDKIHHHHHHMDIREKKTPPTLAPGQTSNPATSLPPRTVEGLRDLVVSIGRDQAEVKLGAKALTVLAHLVERPEEVAVRTITDLANSLDVNASTLTRLATRLGFEGFAEFQGVFRNSMAQRHRHFYSQQAERLVGADNTGMPGGVSPEVGAVVQLAHESIQNVERFVARLSAEELRGAAELLAEAPRVRVHGLRQFSALASFLCYGLSMIRSDVGLLDAHGLGVAEGLAQLQRGDVVVVMSVAPYTRSVAEAAAAAAESGLTVIAITDTSASPLAAAARHAFFIPHESSFFSNSMGAYLIFCEGLLNLAATKLGKRSLRALARREQMIAALDIETE	not soluble
MGSDKIHHHHHHMDITLFKTLLKVAAIGNISKAAAVLCVTQSAVSRRLKQLEDHIGKPLLIRSGNAVRPTEAGQFVLAKAQQIVDLESQIVDKLNVNEPKQRISLCCTPAFGIGRLPSIVSAFMADNAESADLNFVFNMPEQALEGIENGRFDLAIIEHCDDLNMAGHRGYPLPDDEMIFLSAPSLGIDSPAPSIEQLFDKRLYLKNEQGCARRFLDKNLALTGHSITEFANIIYFDDLQFIMREVLAGKGISFVPIGLVVDELCRHTLMAHRIADFDHFYPRTIILGRRAPSPLLLSFINTIYIAFGMPCPSIFHTEAPFPPEGFPESL	not soluble
MGSDKIHHHHHHMDLDRIKGEIVAFVEGRKSEFAAIAEDLYLHPETGLNEVRSSALLADFLEREGFRVERGIAGLPTAFRAETGEGGPVIAFMAEMDALPVMGHACGHNVIAAAAVGAATALRSILPPDAARIVVLGTPAEEMGIGKVDMIANGAFDGVEFALMVHPSSRRYVIKHYLGLARVRFTFFGKPAHAAAYPEEGINALDGVIQTFNGISALRQQLRQDVRVHGIITEGGVAPNIIPERASAHFYVRADDLAELERAKARVLACAEGAALATGCRLQVDADPRIMAPLKVNRIFSDLYSAQLAYLDLQESENQPDKNKGSSDIGNVSQIVPTIHPHVPIGDGINIHSEAFARATVSGKGKAAVAEGATALALTAAELAARPDIREEIWREFRS	not soluble
MGSDKIHHHHHHMDLEEQKKAVIEKLIREGYIKSKRVIDALLKVPREEFLPEHLKEYAYVDTPLEIGYGQTISAIHMVGMMCELLDLKPGMKVLEIGTGCGYHAAVTAEIVGEDGLVVSIERIPELAEKAERTLRKLGYDNVIVIVGDGTLGYEPLAPYDRIYTTAAGPKIPEPLIRQLKDGGKLLMPVGRYLQRLVLAEKRGDEIIIKDCGPVAFVPLVGKEGFQG	not soluble
